Laboratory results published in patent publication US20240400711A1 (SOUND BIOPHARMACEUTICALS, published 2024).
Where a chain is given by its changes, count along the chain named.

B1: FTL004-hu-7 (antibody, human IgG1, kappa)
heavy: not shown
light: DIVLTQSPASLAVSPGQRATITCRASESVDNFGITFMHWYQQKPGQPPKLLIYRASNLESGVPARFSGSGSRTDFTLTINPVEANDTANYYCQQSSKDPRTFGQGTKLEIKRTVAAPSVFIFPPSDEQLKSGTASVVCLLNNFYPREAKVQWKVDNALQSGNSQESVTEQDSKDSTYSLSSTLTLSKADYEKHKVYACEVTHQGLSSPVTKSFNRGEC
notes: Fc before engineering; also called FLT004-hu-7; FTL004-hum-7
B2: FTL004-hu-1 (antibody, human IgG1, kappa)
heavy: not shown
light: B1 light
notes: human IgG1 type constant regions, Fc before engineering; also called FLT004-hu-1; FTL004-hum-1
B3: FTL004-7 (antibody, human IgG1, kappa)
heavy: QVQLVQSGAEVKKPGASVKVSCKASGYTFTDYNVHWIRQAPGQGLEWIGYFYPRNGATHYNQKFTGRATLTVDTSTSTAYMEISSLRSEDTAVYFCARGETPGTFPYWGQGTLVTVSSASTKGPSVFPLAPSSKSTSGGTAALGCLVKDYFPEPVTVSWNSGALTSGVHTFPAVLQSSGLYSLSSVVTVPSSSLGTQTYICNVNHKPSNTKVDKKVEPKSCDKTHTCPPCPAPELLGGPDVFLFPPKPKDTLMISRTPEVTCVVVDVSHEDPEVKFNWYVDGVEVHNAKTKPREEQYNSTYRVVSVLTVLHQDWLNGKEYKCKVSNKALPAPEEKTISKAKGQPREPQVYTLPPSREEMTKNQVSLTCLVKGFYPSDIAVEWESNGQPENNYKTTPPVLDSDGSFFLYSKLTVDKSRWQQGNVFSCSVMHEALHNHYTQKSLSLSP
light: B1 light
notes: copies: 2 + 2
B4: FTL004-hu-6 (antibody, human IgG1, kappa)
heavy: not shown
light: DIQLTQSPSSLSASVGDRVTITCQASESVDNFGITFMHWYQQKPGKAPKLLIYRASNLETGVPSRFSGSGSRTDFTFTISSLQPEDIATYYCQQSSKDPRTFGQGTKLEIKRTVAAPSVFIFPPSDEQLKSGTASVVCLLNNFYPREAKVQWKVDNALQSGNSQESVTEQDSKDSTYSLSSTLTLSKADYEKHKVYACEVTHQGLSSPVTKSFNRGEC
notes: Fc before engineering; also called FLT004-hu-6; FTL004-hum-6
B5: FTL004-6 (antibody, human IgG1, kappa)
heavy: not shown
light: B4 light
B6: FTL004-hu-10 (antibody, human IgG1, kappa, V domains shown)
VH: QVQLVQSGAEVKKPGASVKVSCKASGYTFTDYNVHWIRQAPGQGLEWIGYFYPRNGATHYAQKFQGRVTMTVDTSTSTAYMELSSLRSEDTAVYYCARGETPGTFPYWGQGTLVTVSS
VL: EIVLTQSPATLSLSPGERATLSCRASESVDNFGITFMHWYQQKPGQAPRLLIYRASNLESGIPARFSGSGSRTDFTLTISSLEPEDFAVYYCQQSSKDPRTFGQGTKLEIKR
notes: also called FLT004-hu-10; FTL004-hum-10
B7: FTL004-hu-14 (antibody, human IgG1, kappa, V domains shown)
VH: B6 VH with Q1E, S17T, V20I, R38Q, Q43K, Q62E, M70L, V72A, S77D
VL: DIVLTQSPASLAVSPGQRATITCRASESVDNFGITFMHWYQQKPGQPPKLLIYRASNLESGVPARFSGSGSRTDFTLTINPVEANDTANYYCQQSSKDPRTFGQGTKLEIKR
notes: also called FLT004-hu-14; FTL004-hum-14
B8: FTL004-hu-9 (antibody, human IgG1, kappa, V domains shown)
VH: B6 VH with A61N, Q65T, V68A, M70L, L83I, Y95F
VL: B6 VL
notes: also called FLT004-hu-9; FTL004-hum-9
B9: FTL004-hu-11 (antibody, human IgG1, kappa, V domains shown)
VH: B6 VH with A61N, Q65T, V68A, M70L, L83I, Y95F
VL: DIQLTQSPSSLSASVGDRVTITCRASESVDNFGITFMHWYQQKPGKAPKLLIYRASNLESGVPSRFSGSGSRTDFTLTISSLQPEDFATYYCQQSSKDPRTFGQGTKLEIKR
notes: also called FLT004-hu-11; FTL004-hum-11
B10: FTL004-hu-4 (antibody, human IgG1, kappa, V domains shown)
VH: QVQLVQSGSELKKPGASVKVSCKASGYTFTDYNVHWIRQAPGQGLEWIGYFYPRNGATHYAQGFTGRAVLSADTSVSTAYLQISSLKAEDTAVYYCARGETPGTFPYWGQGTLVTVSS
VL: B6 VL
notes: also called FLT004-hu-4; FTL004-hum-4
B11: FTL004-hu-16 (antibody, human IgG1, kappa, V domains shown)
VH: B6 VH with Q1E, S17T, V20I, R38Q, Q43K, Q62E, M70L, V72A, S77D
VL: B6 VL
notes: also called FLT004-hu-16; FTL004-hum-16
B12: FTL004-hu-17 (antibody, human IgG1, kappa, V domains shown)
VH: EVQLVQSGAEVKKPGATVKISCKASGYTFTDYNVHWIQQAPGKGLEWIGYFYPRNGATHYNQKFTGRATLTADTSTDTAYMEISSLRSEDTAVYFCARGETPGTFPYWGQGTLVTVSS
VL: B9 VL
notes: also called FLT004-hu-17; FTL004-hum-17
B13: FTL004-hu-5 (antibody, human IgG1, kappa, V domains shown)
VH: B10 VH with A61N, G63K, Y95F
VL: B9 VL
notes: also called FLT004-hu-5; FTL004-hum-5
B14: FTL004-hu-18 (antibody, human IgG1, kappa, V domains shown)
VH: B12 VH
VL: B9 VL with R24Q, S60T, L77F, F87I
notes: also called FLT004-hu-18; FTL004-hum-18
B15: FTL004-hu-15 (antibody, human IgG1, kappa, V domains shown)
VH: B12 VH
VL: B6 VL
notes: also called FLT004-hu-15; FTL004-hum-15
B16: FTL004-hu-12 (antibody, human IgG1, kappa, V domains shown)
VH: B6 VH with A61N, Q65T, V68A, M70L, L83I, Y95F
VL: B9 VL with R24Q, S60T, L77F, F87I
notes: also called FLT004-hu-12; FTL004-hum-12
B17: FTL004-hu-3 (antibody, human IgG1, kappa, V domains shown)
VH: B10 VH with A61N, G63K, Y95F
VL: B6 VL
notes: also called FLT004-hu-3; FTL004-hum-3
B18: FTL004-hu-8 (antibody, human IgG1, kappa, V domains shown)
VH: B6 VH
VL: B7 VL
notes: also called FLT004-hu-8; FTL004-hum-8
B19: FTL004-hu-13 (antibody, human IgG1, kappa, V domains shown)
VH: B12 VH
VL: B7 VL
notes: also called FLT004-hu-13; FTL004-hum-13
B20: FTL004-hu-2 (antibody, human IgG1, kappa, V domains shown)
VH: B10 VH
VL: B7 VL
notes: also called FLT004-hu-2; FTL004-hum-2

Biological target: CD38 on CD38-positive cells (human, UniProt P28907 1-300)
Experiment: cell-based or functional assay

Row | Rate of apoptosis (%), Daudi cells [%] | Rate of apoptosis (%), Raji cells [%] | Rate of apoptosis (%), Romas cells [%] | Rate of apoptosis (%), SU-DHL-6 cells [%] | Binder
1 | 34.5 | 12.1 | 31.1 | 19.9 | B1
2 | 36.9 | 14.8 | 62.7 | 20.2 | B2
3 | 37.4 | 17.8 | 60.3 | 20.3 | B3
4 | 29.3 | 13.8 | 63.6 | 16.8 | B4
5 | 36 | 13.9 | 57 | 15.1 | B5

Biological target: T1, human CD38 antigen protein (coated in ELISA) (human, UniProt P28907 43-300, limits assumed)
T1 construct: also called the antigen CD38; human antigen
Experiment: ELISA on coated CD38 antigen, OD (450 nm) against antibody concentration (ng/ml) [Plate3]

Row | EC50 (read off the curve) [µg/mL] | Binder
6 | ~0.3 | B6
7 | ~0.5 | B7

Biological target: T2, recombinant extracellular domain of CD38 (human, UniProt P28907 43-300)
T2 construct: also called CD38 extracellular domain; AtaGenix ATMP00140HU
Experiment: Biacore SPR

Row | Kd [nM] | koff [s⁻¹] | kon [M⁻¹ s⁻¹] | Binder
8 | 3.04 | 0.000699 | 230000 | B8
9 | 2.87 | 0.000848 | 296000 | B9
10 | 10.5 | 0.00313 | 297000 | B10
11 | 25.2 | 0.00459 | 182000 | B11
12 | 3.09 | 0.000848 | 275000 | B12
13 | 1.65 | 0.000686 | 415000 | B13
14 | 4.16 | 0.000788 | 189000 | B14
15 | 3.66 | 0.000784 | 214000 | B15
16 | 3.54 | 0.00083 | 234000 | B16
17 | 14.9 | 0.00241 | 162000 | B6
18 | 1.5 | 0.00052 | 347000 | B17
19 | 2.4 | 0.000766 | 320000 | B1
20 | 1.42 |  |  | B2
21 | 8.39 | 0.00257 | 307000 | B18
22 | 2.78 | 0.000853 | 307000 | B19
23 | 22.4 | 0.00466 | 208000 | B7
24 | 8.3 | 0.00285 | 344000 | B20
25 | 2.44 | 0.000677 | 277000 | B4

Biological target: FcγRIIIa (V176) (UniProt P08637 17-208, limits assumed)
Experiment: kinetics, FcγRIIIa as ligand, antibody as analyte

Sequence of FcγRIIIa (V176) (P08637 17-208 F176V limits assumed): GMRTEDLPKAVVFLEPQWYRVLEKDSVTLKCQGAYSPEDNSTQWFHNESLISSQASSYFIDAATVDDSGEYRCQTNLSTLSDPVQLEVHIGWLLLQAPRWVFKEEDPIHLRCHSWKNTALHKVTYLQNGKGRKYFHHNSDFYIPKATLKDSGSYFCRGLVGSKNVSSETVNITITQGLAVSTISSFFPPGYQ

Row | Kd [nM] | koff [s⁻¹] | kon [M⁻¹ s⁻¹] | Binder
26 | 36.9 | 0.021 | 570000 | B3

Biological target: FcγRIIIa(F176) (UniProt P08637 17-208, limits assumed)
Experiment: kinetics, FcγRIIIa as ligand, antibody as analyte

Sequence of FcγRIIIa(F176) (P08637 17-208 limits assumed): as the sequence (P08637 17-208 F176V limits assumed) above, with V160F counted along it

Row | Kd [nM] | koff [s⁻¹] | kon [M⁻¹ s⁻¹] | Binder
27 | 22.7 | 0.0136 | 599000 | B3
